Drawing on PMC12148588 (2025), this text covers Kd for 4 molecules.

For test [1], the target named is T1, SARS-CoV-2 RBD of the Wuhan strain (Acro Biosystems SPD-C82E9-25) (SARS-CoV-2, UniProt P0DTC2). Put plainly: SPR. In general terms: In SPR one partner is held on a chip, and binding of the other changes the refractive index at the surface.
In test [2] the target is T1, SARS-CoV-2 RBD of the Wuhan strain …. Briefly: SPR. This is another data set of the same source.

Like-named read-outs stand apart in the source and are kept apart here.

B1: MB025_A07K (antibody, V domains shown)
VH: EVQLVESGGDLVQPGGSLRLSCAASEFIVSSNYMSWVRQTPGKGLEWISVLYSGGSTFYADSVKGRFTISRDNSKNTLYLQMNSLRVEDTAVYYCARDFGEFWFDYWGQGTLVTVSS
VL: EIVLTQSPGTLSLSPGERATLSCRASQTINSYLAWYQQKPGQAPRLLIYGASSRATGIPDRFSGSGSGTDFTLTISRLEPEDFAVYYCQQYGNSPRTFGQGTKVEIK
In test [1], B1 registered a Kd of 0.159 nM.

B2: MB043_CL39 (antibody, V domains shown)
VH: EVQLVETGGGLIHPGGSLRLSCAASEFIVSYNYMSWVRQAPGKGLEWVSVIYSGGSTFYADAVKGRFTISRDSSKNTLDLLMNSLRVEDTAVYYCARVLPSNTDYFDYWGQGILVTVSS
VL: QSVLTQPPSVSGATGQRVTISCTGSNSNIGAGSDVHWYQQLPGAAPKLLIYVNNNRPSGVPDRFSGSKSGTSASLAITGLQAEDEADYYCQSYDSSLSGYVFGTGTKVTVL
The molecule B2 yielded a Kd in test [2] of 0.0273 nM.

B3: MB027_D06L (antibody, V domains shown)
VH: EVQLVETGGGLIQPGGSLRLSCAASGFIVSSNYMSWVRQAPGKGLEWVSIIYSGGSTFYADAVKGRFTISRDNSKNTLDLQMNSLRAEDTAVYYCARVLPTSTDYFDYWGQGILVTVSS
VL: QSVLTQPPSVSGAPGQRVTISCTGSNSNIGAGSDVHWYQHLPGTAPTLLIYSNSNRPSGVPDRFSGSKSGTSASLAITGLQAEDEADYYCQSYDSSLSTYVFGTGTKVTVL
B3 registered a Kd in test [2] of 7.17 nM.

B4: MB025_A09L (antibody, V domains shown)
VH: EVQLVESGGGLVQPGGSLRLSCAASGFSVSIFYMNWVRQAPGKGLEWVSSVYSGETTYYADSVRGRFTISRDNSKSTLYLQMNSLRPEDTAVYYCARGVDYRTNRTEGGAFDIWGQGTMVTVSS
VL: QSALTQPASVSGSPGQSIPISCTGTSSDFGNYNLISWYQQHPGKAPKLMIYEGTKRPSGVSDRFSGSKSANTASLTISGLQAEDEADYYCCSYAGSSTWMFGGGTKLTVL
For B4, in test [1], the Kd turned out to be 0.00491 nM.

Broadly, the Kd is the free concentration of one partner at which half of the binding sites on the other are occupied at equilibrium, for simple one-to-one binding. A low value points to tighter binding.
